Assay [1] has as its target T1, YFP-tagged human APJ receptor (human, UniProt P35414 1-380).
T1 construct: whole, on cells; also called hAPJ; APJ WT; not shown: YFP tag
T1 sequence (looked up): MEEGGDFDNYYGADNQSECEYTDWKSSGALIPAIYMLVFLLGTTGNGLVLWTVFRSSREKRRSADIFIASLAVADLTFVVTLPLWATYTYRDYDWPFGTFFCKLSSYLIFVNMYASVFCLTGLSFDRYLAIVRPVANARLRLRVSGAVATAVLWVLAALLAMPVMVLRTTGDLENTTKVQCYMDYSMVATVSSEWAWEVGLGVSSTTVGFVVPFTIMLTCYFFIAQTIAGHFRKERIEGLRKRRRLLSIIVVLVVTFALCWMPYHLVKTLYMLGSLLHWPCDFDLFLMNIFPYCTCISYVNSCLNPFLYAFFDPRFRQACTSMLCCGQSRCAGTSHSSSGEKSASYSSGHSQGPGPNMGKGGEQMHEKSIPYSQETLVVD
Nature of the assay: competitive radioligand binding, HEK293-hAPJ membranes.

Assay [2] deals with T2, human APJ (transfected HEK293 cells, Gαi1 BRET assay) (human, UniProt P35414 1-380).
T2 sequence (looked up): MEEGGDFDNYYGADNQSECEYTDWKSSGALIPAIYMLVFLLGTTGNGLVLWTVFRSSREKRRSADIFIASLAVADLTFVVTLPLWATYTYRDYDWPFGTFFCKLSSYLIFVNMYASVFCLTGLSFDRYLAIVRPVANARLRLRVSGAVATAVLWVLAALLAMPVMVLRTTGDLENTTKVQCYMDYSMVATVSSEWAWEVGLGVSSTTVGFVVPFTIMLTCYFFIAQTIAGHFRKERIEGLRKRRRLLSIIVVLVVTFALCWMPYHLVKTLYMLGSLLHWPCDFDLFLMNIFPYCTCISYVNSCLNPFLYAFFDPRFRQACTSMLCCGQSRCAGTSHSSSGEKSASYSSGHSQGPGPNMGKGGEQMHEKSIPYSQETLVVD
Nature of the assay: cell-based or functional assay.

Assay [3] addresses T2, human APJ (transfected HEK293 cells, …). Nature of the assay: cell-based or functional assay. This is another data set of the same source.
The target is the same in assay [4]. Nature of the assay: cell-based or functional assay. The source holds these as a separate data set.
Assay [5] deals with T1, YFP-tagged human APJ receptor. In words: competitive radioligand binding, HEK293-hAPJ membranes. This is another data set of the same source.

Read-outs that look alike come from different tables or passages of the source. Numbered stars: 1 amine (or outer) side, 2 acyl side, 3 side chain; on linkers, the order of the positions; unused ones are H or OH. Bridge positions count the residues as written; N and C are the ends. Square brackets hold non-standard residues; d marks the D form. Ends that are not written are not given here. * marks the point of attachment. cypY = 3-cyclopentyl-tyrosine, O=C([C@H](Cc1ccc(O[*:3])c(C2CCCC2)c1)N[*:1])[*:2]; Phe(4-Br) = N[C@@H](Cc1ccc(Br)cc1)C(=O)O; Benzoyl(4-Br) = O=C(c1ccc(Br)cc1)*; hArg = N=C(N)NCCCC[C@H](N)C(=O)O; AllylGly = C=CC[C@H](N)C(=O)O; pGlu = O=C1CC[C@@H](C(=O)O)N1; Nle = CCCC[C@H](N)C(=O)O; B1 = not defined here; B3 = not defined here

B1: Compound 75 (ABB01-105) (peptide)
peptide: [pGlu]RRE[Nle]PKHSRVPFP
modifications: lactam 4-7
With B1, the Ki (commonly the dissociation constant of the complex between target and ligand, obtained from inhibition or displacement) in assay [1] was 59 nM. The “EC50 Gail” value in assay [2] was determined as 19 nM.

B2: Compound 76 (AM03-40) (peptide)
peptide: [pGlu]RRSKPLHERVPFP
modifications: lactam 5-9
For B2, the affinity in assay [1], expressed as Ki, was 119 nM.

B3: Compound 77 (ABB01-106) (peptide)
peptide: [pGlu]RRSEPLHKRVPFP
modifications: lactam 5-9
Turning to B3, in assay [1], affinity was put at a Ki of 6.2 nM. In addition, in assay [2], the “EC50 Gail” value was 6.1 nM.

B4: Compound 23 (KT01-121) (peptide)
peptide: Guanidine-[AllylGly]RLS[AllylGly]KGP[Nle]PF
modifications: staple 1-5
B4: in assay [3], the “Gαi1 Emax (%)” value amounted to 103%.

B5: Compound 90 (KT03-16) (peptide)
peptide: [pGlu][hArg]RSEPLHKRVPFP
modifications: lactam 5-9
With B5, in assay [2], the “EC50 Gail” value amounted to 15 nM.

B6: Compound 20 (KT01-100) (peptide)
peptide: H-[AllylGly]RLS[AllylGly]KGP[Nle]PF
modifications: staple 1-5
Take B6: the “Gαi1 Emax (%)” value in assay [3] is 100%.

B7: Compound 94 (KT04-16) (peptide)
peptide: {Benzoyl(4-Br)}-RRSEPLHKRVP[Phe(4-Br)]P
modifications: lactam 4-8
B7 came in with a Ki in assay [1] of 0.29 nM.

B8: Compound 72 (AM03-37) (peptide)
peptide: KRRE[Nle]PLHSRVPFP
modifications: lactam 1-4
On to B8, for which the affinity in assay [1] corresponds to a Ki of 0.87 nM. Further, in assay [2], the “EC50 Gail” value is 1.7 nM.

B9: Compound 64 (KT02-78) (peptide)
peptide: Ac-KFRRQRPRLEHKKP[Nle]P[cypY]
modifications: lactam 10-13
Regarding B9, the “EC50 Gαi1” value in assay [4] was determined as 19.4 nM. Besides, the inhibitory constant (Ki) in assay [5] stood at 0.77 nM.

B10: Compound 74 (AM03-38) (peptide)
peptide: [pGlu]RRK[Nle]PEHSRVPFP
modifications: lactam 4-7
With B10, in assay [1], the Ki came out at 261 nM.

B11: Compound 69 (KT02-20) (peptide)
peptide: Ac-KFRRQRPRLEHKKP[Nle]P[B3]
modifications: lactam 10-13; reading uncertain; also: B3 structure not given here
In turn, B11 yielded a Ki in assay [5] of 3 nM.

B12: Compound 84 (ABB01-109) (peptide)
peptide: [Nle]PEHSRKPFP
modifications: lactam 3-7
For the molecule B12, in assay [1], the Ki was 274 nM.

B13: Compound 45 (KT04-42b) (peptide)
peptide: H-[AllylGly]RLS[AllylGly]KGP[dY]
modifications: staple 1-5
Regarding B13, the “Gαi1 Emax (%)” value in assay [3] turned out to be 100%.

B14: Compound 67 (KT02-18) (peptide)
peptide: Ac-KFRRQRPRLEHKKP[Nle]P[B1]
modifications: lactam 10-13; reading uncertain
Molecule B14 gave a Ki in assay [5] of 12 nM.

Source of the values: US20240343761A1, “APELINERGIC MACROCYCLES AND USES THEREOF” (priority 2021, published 2024).
